The source of these data is article PMC2121028.

This test addresses SNF1/GAL4(1-147). Nature of the test: two-hybrid. Conditions: scale: units.

Chain of SNF1/GAL4(1-147) (P06782 whole entry, the tested form may be a part): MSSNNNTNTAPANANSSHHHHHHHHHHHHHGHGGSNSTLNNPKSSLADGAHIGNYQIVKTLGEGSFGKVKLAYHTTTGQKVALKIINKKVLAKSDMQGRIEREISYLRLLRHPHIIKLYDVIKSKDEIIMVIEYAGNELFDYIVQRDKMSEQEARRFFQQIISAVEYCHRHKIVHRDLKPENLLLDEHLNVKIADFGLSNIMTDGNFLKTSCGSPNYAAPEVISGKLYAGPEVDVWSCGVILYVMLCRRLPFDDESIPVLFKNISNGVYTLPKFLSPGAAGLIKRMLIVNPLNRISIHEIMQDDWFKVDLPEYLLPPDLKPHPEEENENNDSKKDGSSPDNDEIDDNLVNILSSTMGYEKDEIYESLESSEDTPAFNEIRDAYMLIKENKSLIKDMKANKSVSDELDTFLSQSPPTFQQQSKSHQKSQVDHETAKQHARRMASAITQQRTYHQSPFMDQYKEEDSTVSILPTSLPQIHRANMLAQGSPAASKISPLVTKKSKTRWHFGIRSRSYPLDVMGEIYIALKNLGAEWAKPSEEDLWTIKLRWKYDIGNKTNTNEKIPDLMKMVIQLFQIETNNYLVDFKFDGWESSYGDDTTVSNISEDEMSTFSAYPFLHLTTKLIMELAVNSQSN
Chain of SNF4/GAL4(768-881) (natural protein) (P12904 whole entry, the tested form may be a part): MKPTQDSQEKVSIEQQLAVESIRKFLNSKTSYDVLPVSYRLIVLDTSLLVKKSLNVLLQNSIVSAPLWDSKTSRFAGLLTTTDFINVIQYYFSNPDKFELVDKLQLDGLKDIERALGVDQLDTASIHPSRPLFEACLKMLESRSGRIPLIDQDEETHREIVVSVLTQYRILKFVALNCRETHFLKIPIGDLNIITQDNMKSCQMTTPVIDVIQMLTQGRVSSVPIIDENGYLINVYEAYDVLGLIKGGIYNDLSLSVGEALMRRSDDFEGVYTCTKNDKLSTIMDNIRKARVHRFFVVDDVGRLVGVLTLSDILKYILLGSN

The substance SNF4/GAL4(768-881) (natural protein) yielded a beta-galactosidase activity of 500.
